Source: patent US20110065645A1, “Compositions and Methods for Modulating Neuron Degeneration and Neuron Guidance” (The Regents of the University of California, priority 2009, published 2011)

Experiments:
JNK [1] = assay: Phospho-Jun immunoblot in dissociated commissural neurons; assay type: cell-based, rat; settings: within 15 minutes of bath application; 200 ng/ml
Text: JNK is activated by Wnt5a in commissural axons and required for their A-P guidance. Several Wnt genes are expressed in an anterior-posterior gradient in or around the floor plate of the spinal cord. However, the mechanisms of how Wnt signaling mediates axon attraction and growth have yet to be elucidated. We tested whether JNK signaling is activated in commissural neurons via Wnt5a stimulation by measuring the levels of phospho Jun (FIG. 20A) and also examined whether JNK is required for A-P guidance of commissural axons. Commissural neurons were cultured for 36 hrs and subject to bath application of Wnt5a. […] Furthermore, endogenous Fzd3 and Vgl2 proteins can be detected in rat E13 commissural neuron lysates after 36 hours in culture (anti-Fzd3 and anti-Vgl2 IB, FIG. 20A). The specificity of Fzd3 and Vgl2 antibodies for western blot analysis was validated using knock and mutant mouse line (FIG. 27D and FIG. 27E).
Commissural neuron culture, treatment and lysis. Rat E13 embryos were dissected and commissural neuron culture was prepared as previously described (Augsburger et al., 1999). […] The cells were then lysed on ice and the lysates were analyzed on immunoblots.

JNK [2] = assay: Phospho-Jun immunoblot in HEK293T cells expressing Fzd3-mCherry; assay type: cell-based; settings: Wnt5a added
Text: Vgl2 antagonizes Dvl1's feedback inhibition of Fzd3 mediated Wnt/PCP Signaling. To elucidate how core PCP components function cell autonomously, we first explored how Dvl1, Vgl2 and Fzd3 interact with each other. It is known that Dvl is a central cytoplamsic molecule in the activation of Wnt-PCP signaling. In non-canonical signaling, Fzd is thought recruit Dvl to the plasma membrane and Dvl then subsequently activates the downstream signaling, such as Jun N terminal kinases (JNK), Rac1 and RhoA. […] However, upon co-expression of Fzd3 and Dvl1, we found a surprising Wnt5a-dependent down regulation of p-Jun level (FIG. 17A, lanes 5-7, quantified in FIG. 17B), uncovering a novel feedback inhibition mechanism in PCP signaling. With 30 minutes of Wnt5a addition p-Jun signal is essentially gone in Fzd3 and Dvl1 co expressing cells, (FIG. 17A lane 7).
Surface biotinylation and immunopreciptiation. […] For the membrane immunoprecipitation, 600 ug of protein extracts were incubated overnight and retrieved by NeutrAvidin-coated Agarose beads (Pierce), the bound fraction was boiled and loaded on SDS-PAGE gel and analyzed by western blot analysis. […]

commissural axons = assay: Axon length of electroporated dissociated commissural neurons on Wnt5a-coated coverslips; assay type: cell-based, rat
Text: Fzd3 mediates Wnt-stimulated commissural axon elongation. To directly test the function of PCP components in Wnt-mediated outgrowth of commissural axons, we electroporated DNA constructs to express PCP components in dissociated commissural neurons. The spinal cord of E11.5 mouse or E13 rat contains a ventricle into which plasmid DNA can be introduced (FIG. 28A). After injecting DNA into the central canal and electroporation, the spinal cord was dissected into an “open-book” configuration and then the dorsal spinal cord margin including the progenitor domains was dissociated as previously described ((Augsburger et al., 1999), FIG. 28A). More than 90% of the electroporated and dissociated neurons were TAG-1 immuno-reactive, confirming that they are commissural neurons (Wolf et al., 2008).
This may be due the presence of low endogenous levels of PCP components in these axons following 24 hours of culture (FIGS. 20A-20E).
Electroporated commissural culture. Electroporations of rat E13 spinal cords were completed as previously described (Wolf et al., 2008). Neurons were dissociated from these spinal preps and grown as previously described (Augsburger et al., 1999). […] The axons lengths were quantified with Zeiss LSM510 software, verified with ImageJ quantification, and the data were analyzed with an unpaired two-tailed t test for each electroporation condition.

B1: Wnt5a: recombinant Wnt5a protein (R&D Systems) (protein, UniProt P41221 62-380, looked up)
Protein Wnt-5a: IIGAQPLCSQLAGLSQGQKKLCHLYQDHMQYIGEGAKTGIKECQYQFRHRRWNCSTVDNTSVFGRVMQIGSRETAFTYAVSAAGVVNAMSRACREGELSTCGCSRAARPKDLPRDWLWGGCGDNIDYGYRFAKEFVDARERERIHAKGSYESARILMNLHNNEAGRRTVYNLADVACKCHGVSGSCSLKTCWLQLADFRKVGDALKEKYDSAAAMRLNSRGKLVQVNSRFNSPTTQDLVYIDPSPDYCVRNESTGSLGTQGRLCNKTSEGMDGCELMCCGRGYDQFKTVQTERCHCKFHWCCYVKCKKCTEIVDQFVCK
increase of endogenous phospho-Jun levels (JNK [1]): 4 fold
p-Jun level (JNK [2]): increased
increase in axon growth (commissural axons; control neurons expressing EGFP): ~15%
enhancement of axon length (commissural axons; neurons over-expressing Fzd3-EGFP, within 24 hours): ~36%
